Experimental findings from patent publication US20240026004A1 (SHANGHAI HUAOTA BIOPHARMACEUTICAL, published 2024) are described below.

The target in experiment [1] is T1, human PD-L1 on CHO-K1 cells (human, UniProt Q9NZQ7 19-290).
T1 construct: whole, on cells; also called CHO-K1 cells overexpressing human PD-L1; CHO-K1-OS8-PD-L1-8D6 cells
The experiment is described as follows: flow cytometry on CHO-K1 cells overexpressing human PD-L1, PE anti-human IgG detection, median fluorescence intensity.
Protocol: CHO-K1 cells overexpressing human PD-L1 were taken and resuspended to 1×10⁶/ml and added into a 96-well plate at 20 μl/well.

Experiment [2] addresses Human PD-L1 (BIAcore analyte) (human, UniProt Q9NZQ7 19-238, limits assumed). The experiment is described as follows: SPR (BIAcore), HB0028 captured on anti-human IgG (Fc) chip, PD-L1 as analyte, 1:1 fit. (In SPR one partner is held on a chip, and binding of the other changes the refractive index at the surface.)
Protocol: (§1) Flow rate: 30 μl/min, binding: 120 s, dissociation: 600 s, analyzing the kinetic constants by Fit local using a 1:1 binding mode.
In a further experiment the target is T2, Monkey PD-L1 (monkey).
T2 construct: also called PD-L1 in monkeys
The description is as above.

In experiment [3] the target is T3, human TGF-β1 (human, UniProt P01137 279-390).
T3 construct: also called TGF-β1 (ACRO, TG1-H4212); free TGF-β protein
Nature of the experiment: ELISA, TGF-β1 coated at 0.5 µg/ml, HRP anti-human IgG detection, OD450.
Protocol: (§2) After washing with PBST, into the plates was added HRP-labeled anti-human IgG secondary antibody (1:5000 dilution) at 100 μl/well, reacted at room temperature for 30 min, and then washed with PBST. After developing with TMB color development solution for 5 min, the reaction was terminated with sulfuric acid, and OD450 value was read by a microplate reader.

Another experiment has as its target T4, Human LAP (human, UniProt P01137 30-278).
T4 construct: domain: LAP; also called precursor of TGF-β1 (Human LAP)
The experiment is described as follows: SPR (BIAcore), HB0028 captured on Protein A chip, TGF-β protein as analyte.

Another experiment has as its target T5, Mouse precursor TGF-β1 (mouse, UniProt P04202 30-390, limits assumed).
T5 construct: Latent/precursor form as printed; also called Mouse Latent TGF-β1
The experiment is described as above.

The target in the next experiment is T6, Mouse/Rat TGF-β2 (mouse/rat, UniProt P27090 303-414).
T6 sequence (looked up): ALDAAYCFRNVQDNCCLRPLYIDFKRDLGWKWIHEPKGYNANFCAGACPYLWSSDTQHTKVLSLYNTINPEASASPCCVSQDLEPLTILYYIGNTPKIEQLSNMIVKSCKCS
Nature of the experiment: SPR (BIAcore), HB0028 captured on Protein A chip, TGF-β protein as analyte, 1:1 fit.

A further experiment deals with Mouse/Rat TGF-β1 (mouse/rat, UniProt P04202 279-390). Described as above.
A further experiment deals with T7, Human TGF-β2 (human, UniProt P61812 303-414).
T7 sequence (looked up): T6 sequence (looked up) with T59S, K60R, N94K
The description is as above.

For experiment [4], the target named is T3, human TGF-β1. The experiment is described as above.
Protocol: as §1
Experiment [5] addresses T1, human PD-L1 on CHO-K1 cells. Nature of the experiment: dual-target flow cytometry: sample pre-mixed with 3 µg/ml human TGF-β1, then CHO-K1 cells overexpressing human PD-L1, detection with PE anti-human TGF-β1 antibody (signal needs PD-L1 and TGF-β1 bound at once). On the technique in general: A flow cytometer gives signals particle by particle.
Protocol: After then, CHO-K1 cells overexpressing human PD-L1 were taken and resuspended to 1×10⁶/ml, added into a 96-well plate at 20 μl/well, and incubated for min after being mixed uniformly. The plate was washed twice by centrifugation with 1% BSA-PBS. Into each well was added 20 μl of PE fluorescence labeled anti-human TGF-β1 secondary antibody (1:100), incubated at room temperature for 15 min, washed three times by centrifugation, and then tested for the emission intensity at 580 nm by a flow cytometer Canto II (BD).
For another experiment, the target named is T8, Mouse PD-L1 (mouse, UniProt Q9EP73 19-238, limits assumed).
T8 construct: also called PD-L1 in mice
Nature of the experiment: SPR (BIAcore), HB0028 captured on anti-human IgG (Fc) chip, PD-L1 as analyte.

The target of a further experiment is T9, Rat PD-L1 (rat, UniProt D4AE25 19-239).
T9 construct: also called PD-L1 in rats
The description is as above.

The target in a further experiment is T10, Rabbit PD-L1 (rabbit, UniProt G1SUI3 19-236).
T10 construct: also called PD-L1 in rabbits
T10 sequence: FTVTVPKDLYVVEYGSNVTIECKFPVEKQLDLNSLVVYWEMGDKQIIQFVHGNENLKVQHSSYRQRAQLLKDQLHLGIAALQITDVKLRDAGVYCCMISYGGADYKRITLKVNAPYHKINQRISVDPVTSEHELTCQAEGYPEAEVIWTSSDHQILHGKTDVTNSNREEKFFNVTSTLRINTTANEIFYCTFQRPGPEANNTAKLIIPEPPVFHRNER
Described as above.

For another experiment, the target named is T11, human TGF-β3 (human, UniProt P10600 301-412).
T11 construct: also called TGF-β3 (R&D, 8420-B3-025)
T11 sequence (looked up): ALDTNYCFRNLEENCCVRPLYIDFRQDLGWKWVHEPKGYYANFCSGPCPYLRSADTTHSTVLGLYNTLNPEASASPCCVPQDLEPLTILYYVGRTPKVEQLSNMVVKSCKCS
Nature of the experiment: ELISA, TGF-β3 coated at 0.5 µg/ml, HRP anti-human IgG detection, OD450.

Where a chain is given by its changes, count along the chain named.

T1 sequence (Q9NZQ7 19-290): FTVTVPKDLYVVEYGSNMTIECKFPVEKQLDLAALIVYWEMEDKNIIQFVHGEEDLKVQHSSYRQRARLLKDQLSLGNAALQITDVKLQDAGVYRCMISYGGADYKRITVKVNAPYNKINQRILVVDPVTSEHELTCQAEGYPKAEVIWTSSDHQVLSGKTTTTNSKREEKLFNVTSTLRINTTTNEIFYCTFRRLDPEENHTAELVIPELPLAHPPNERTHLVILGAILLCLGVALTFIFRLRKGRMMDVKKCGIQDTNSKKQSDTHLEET
T3 sequence (P01137 279-390 limits assumed): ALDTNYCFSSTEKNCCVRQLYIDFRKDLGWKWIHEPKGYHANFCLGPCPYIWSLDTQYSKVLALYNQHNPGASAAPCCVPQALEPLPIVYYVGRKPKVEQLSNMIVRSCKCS
T9 sequence (D4AE25 entry or part of it limits assumed): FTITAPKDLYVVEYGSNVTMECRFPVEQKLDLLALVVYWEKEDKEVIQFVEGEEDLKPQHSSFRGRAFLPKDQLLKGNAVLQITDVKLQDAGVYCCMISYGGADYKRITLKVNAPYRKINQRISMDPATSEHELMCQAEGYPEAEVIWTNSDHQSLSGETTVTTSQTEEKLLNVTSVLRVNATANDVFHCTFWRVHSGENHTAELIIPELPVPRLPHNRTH
Human PD-L1 (BIAcore analyte), sequence (Q9NZQ7 19-238 limits assumed): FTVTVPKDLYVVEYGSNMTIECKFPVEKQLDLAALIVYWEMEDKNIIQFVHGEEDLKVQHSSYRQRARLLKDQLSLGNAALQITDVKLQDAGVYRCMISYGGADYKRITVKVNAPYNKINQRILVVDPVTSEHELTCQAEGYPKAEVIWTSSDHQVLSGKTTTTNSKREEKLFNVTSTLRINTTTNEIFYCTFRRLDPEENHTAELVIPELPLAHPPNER
T8 sequence (Q9EP73 19-238 limits assumed): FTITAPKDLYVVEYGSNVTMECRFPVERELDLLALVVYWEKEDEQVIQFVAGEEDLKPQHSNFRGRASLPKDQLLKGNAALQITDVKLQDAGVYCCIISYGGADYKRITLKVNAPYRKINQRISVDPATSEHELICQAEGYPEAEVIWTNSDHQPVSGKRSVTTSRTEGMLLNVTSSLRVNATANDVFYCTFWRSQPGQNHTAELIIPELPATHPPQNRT
T4 sequence (P01137 30-278 limits assumed): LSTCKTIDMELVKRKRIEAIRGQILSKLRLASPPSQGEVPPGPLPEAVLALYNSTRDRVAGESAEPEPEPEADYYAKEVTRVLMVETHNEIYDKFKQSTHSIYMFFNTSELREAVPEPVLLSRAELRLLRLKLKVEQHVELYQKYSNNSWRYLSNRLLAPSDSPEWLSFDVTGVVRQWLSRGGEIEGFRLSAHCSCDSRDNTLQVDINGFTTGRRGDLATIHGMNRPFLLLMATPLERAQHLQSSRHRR
Mouse/Rat TGF-β1, sequence (P04202 279-390 limits assumed): as the sequence (P01137 279-390 limits assumed) above, with A75S counted along it
T5 sequence (P04202 30-390 limits assumed): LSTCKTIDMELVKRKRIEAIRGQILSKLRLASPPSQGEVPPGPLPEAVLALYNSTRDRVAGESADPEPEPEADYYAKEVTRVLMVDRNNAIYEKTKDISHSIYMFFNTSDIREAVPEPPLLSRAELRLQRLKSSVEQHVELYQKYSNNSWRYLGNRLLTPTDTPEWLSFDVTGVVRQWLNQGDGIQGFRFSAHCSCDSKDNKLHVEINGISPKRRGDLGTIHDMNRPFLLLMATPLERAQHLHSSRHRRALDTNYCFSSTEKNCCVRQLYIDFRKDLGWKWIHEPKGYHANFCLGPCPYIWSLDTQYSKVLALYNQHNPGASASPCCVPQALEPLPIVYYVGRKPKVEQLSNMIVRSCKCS
Protocol for Human LAP: as §1
Protocol for Human TGF-β2: as §1
Protocol for Monkey PD-L1: as §1
Protocol for Mouse PD-L1: as §1
Protocol for Mouse precursor TGF-β1: as §1
Protocol for Mouse/Rat TGF-β1: as §1
Protocol for Mouse/Rat TGF-β2: as §1
Protocol for Rabbit PD-L1: as §1
Protocol for Rat PD-L1: as §1
Protocol for human TGF-β3: as §2

B1: HB0028 (bispecific antibody, human IgG1, kappa)
heavy: not shown
light: DVVMTQTPLSLSVTPGQPASISCKSSQSLANSYGNTYLSWYLHKPGQSPQLLIYGISNRFSGVPDRFSGSGSGTDFTLKISRVEAEDVGVYYCLQGTHQPPTFGQGTKLEIKRTVAAPSVFIFPPSDEQLKSGTASVVCLLNNFYPREAKVQWKVDNALQSGNSQESVTEQDSKDSTYSLSSTLTLSKADYEKHKVYACEVTHQGLSSPVTKSFNRGEC
notes: also called N-fusion PD-L1/TGF-β bispecific antibody; heavy chain 500054 + light chain 400085
In the case of B1, the values for the EC50 (in [1]; with human TGF-β1 [3]; in experiment [5]) were 3.77 nM, 0.347 nM and 4.22 nM, respectively. The Kd was found to be 2.45 nM in [2]; 5.87 nM with Monkey PD-L1; 1.97 nM in the experiment with Mouse/Rat TGF-β2; 0.00275 nM with Mouse/Rat TGF-β1; 1.56 nM in the experiment with Human TGF-β2; 0.0114 nM with human TGF-β1 [4]. Moreover, the binding result in the experiment with Human LAP, in the experiment with Mouse precursor TGF-β1, with Mouse PD-L1, in the experiment with Rat PD-L1 and with Rabbit PD-L1 was “no binding” throughout.

B2: HB0029 (bispecific antibody, human IgG1, kappa)
heavy: not shown
light: B1 light
notes: Heavy chain from N to C: VH of HB0023, wild-type human IgG1 constant region, GS linker, human TGF-βRII ECD 24-159; Same light chain as HB0028; also called C-fusion PD-L1/TGF-β bispecific antibody; heavy chain 500055 + light chain 400085
With B2, the EC50 in [1] worked out at 1.85 nM; with human TGF-β3, 1.51 nM; in the experiment with human TGF-β1 [3], 0.955 nM; in experiment [5] it was 1.61 nM.

B3: TGFβRII (Fc fusion)
chain: TIPPHVQKSVNNDMIVTDNNGAVKFPQLCKFCDVRFSTCDNQKSCMSNCSITSICEKPQEVCVAVWRKNDENITLETVCHDPKLPYHDFILEDAASPKCIMKEKKKPGETFFMCSCSSDECNDNIIFSEEYNTSNPD
In the experiment with human TGF-β1 [3], B3 registered a half-maximal effective concentration (EC50) of 0.652 nM.

One may read the EC50 as the concentration needed to bring the measured effect to its halfway point. In general, Kd refers to the concentration at which binding is half-saturated.
